The target in test [1] is NM23 pHis peptide. The test can be described thus: BLI of pHis Fabs with phosphorylated NM23 peptide. Format: binding. The method, then:
(§1) Next, we turned to further analyze the peptide selectivity using BLI experiments. Nine amino acid peptide sequences from proteins known to undergo histidine phosphorylation were selected and synthesized (SI Appendix, Table S2). The biotinylated peptides ACLY, NM23, SCS, and Common-His were chemically phosphorylated using phosphoramidate (8 h at 23 °C), and affinity-purified using immobilized 1-pHis IgGs or 3-pHis IgGs, as described above. BLI signal intensity was used to assess peptide binding to the Fabs. SC1-1, SC50-3, SC39-4, and SC56-2 had signal intensities in 0.5 to 1 nm for the association (SI Appendix, Fig. S10), whereas SC44-8 had maximum signal (2.0 nm) with ACLYana, which has GpHAGAG motif, and a signal of 0.5 nm for ACLY and SCS peptides, which have GpHAGAC and GpHAGAI motifs, respectively. However, there was no signal with NM23 and Common-His peptides, which lack this motif (SI Appendix, Fig. S10D). […] The binding kinetics of the pHis Fabs with this set of peptides indicate that the affinity values are similar for the pHis Fabs SC50-3, SC39-4, and SC56-2, consistent with them binding in a sequence-independent manner.
(§2) The binding kinetics of pHis Fabs with the peptides (pTza and pHis) were evaluated with an Octet RED96e (FortéBio). Streptavidin-coated biosensors (FortéBio) were presoaked in buffer containing 50 mM Hepes pH 8.0, 150 mM NaCl, 0.05% Tween-20, and 0.2% BSA for 15 min. The biotinylated pTza peptides or pHis peptides (20 nM) with and without phosphoramidate treatment were coated onto these streptavidin biosensors and analyzed for their binding to varying concentrations of the pHis Fabs with an association time of 120 s and dissociation time of 200 s. The entire set of experiments was repeated three times. The data were analyzed using the Octet software (FortéBio) and the rates of association and dissociation were obtained by global fitting data to the 1:1 Langmuir interaction model. […]
(§3) Peptides used in the DSF and BLI experiments were synthesized by the Salk Peptide Synthesis Core. These peptides were N-terminally biotinylated and C-terminally amidated. They were synthesized using standard Fmoc chemistry on a Gyros Protein Technologies Tribute peptide synthesizer with UV monitoring. […]
(§4) Phosphoramidation reaction. The small molecule phosphate donor phosphoramidate was used to phosphorylate the peptides containing His (Table S2). Phosphoramidate was synthesized based on Wei and Matthew’s method (2) and stored in a desiccator. 20 nanomoles of peptides were added to one micromole of the phosphoramidate in 50 mM Hepes pH 8.0 and 150 mM NaCl buffer. […]
(§5) 1H NMR of ACLYana peptide. A mixture of 5 mM ACLYana peptide and 250 mM phosphoramidate in 20 mM d18-Hepes, pH 8.0, 50 mM NaCl in D2O was incubated at 23 °C and monitored over the course of 29 h. […]

For test [2], the target named is Common-His pHis peptide. In words: BLI of pHis Fabs with phosphorylated Common-His peptide. Format: binding. Here is the method:
as §1, §2, §3, §4, §5

Where [3] appears, read: BLI, phosphorylated, affinity-purified NM23 peptide, Table S7.
Where [4] appears, read: BLI, phosphorylated, affinity-purified Common-His peptide, Table S7.

This is an account of results in PMC8017925, “Structural basis for differential recognition of phosphohistidine-containing peptides by 1-pHis and 3-pHis monoclonal antibodies” (Proceedings of the National Academy of Sciences of the …, 2021).

B1: SC44-8: Fab of rabbit 3-pHis-specific monoclonal antibody with proclivity for GpHAGA motif (antibody, V domains shown)
VH: QSVKESGRGLVQPGGSLTLTCTASGFSIDSYGFSWVRQAPGKGLEHIGYLTAGGRAFYASWAKSRSTITRNTNENTVTLKMTSLTAADTATYFCAKLGSGNPVAIWGPGTLVTVSS
VL: QVLTQTPSFTSAAVGGTVTINCQSSQSVWRNKNLAWYQQKPGQPPKRLIYAIATLDSGVPSRFSGSGSGTQFTLTISDVQCDDAATYYCVGHYGSENDAYYAFGGGTEVVVK
On to B1, for which the KD result is given as “No binding” in test [1] (BLI, biotinylated NM23 peptide phosphorylated with phosphoramidate (8 h at 23 °C), affinity-purified on 1-pHis or 3-pHis IgGs (cognate isomer), Table S7) and “No binding” in test [2] (BLI, biotinylated Common-His peptide phosphorylated with phosphoramidate (8 h at 23 °C), affinity-purified on 1-pHis or 3-pHis IgGs (cognate isomer), Table S7). Also, the ka result in test [1] (setting [3]) and in test [2] (setting [4]) was “No binding” throughout. Besides, the kd result in test [1] (setting [3]) and in test [2] (setting [4]) was “No binding” in each case. Moreover, the “BLI signal with NM23 peptide” value in test [1] (phosphorylated NM23, lacks GpHAGA motif) is listed as “no signal”. Also, the “BLI signal with Common-His peptide” value in test [2] (phosphorylated Common-His, lacks GpHAGA motif) is “no signal”.
